# Results published in publication PMC3155019, “Dynamics of the Phosphoinositide 3-Kinase p110δ Interaction with p85α and Membranes Reveals Aspects of Regulation Distinct from p110α” (Structure(London, England:1993), 2011).
# Non-standard residues stand in square brackets, D forms with d. No end group written: not given here. pY = N[C@@H](Cc1ccc(OP(=O)(O)O)cc1)C(=O)O
# Molecular target: p110δ+p85α nicSH2 complex (human | , UniProt O00329 1-1044; P27986 322-724)
# Assay: cell-based or functional assay
# Sequence of p110δ+p85α nicSH2 complex (O00329 whole entry, stated change not applied, chain 1 of 2): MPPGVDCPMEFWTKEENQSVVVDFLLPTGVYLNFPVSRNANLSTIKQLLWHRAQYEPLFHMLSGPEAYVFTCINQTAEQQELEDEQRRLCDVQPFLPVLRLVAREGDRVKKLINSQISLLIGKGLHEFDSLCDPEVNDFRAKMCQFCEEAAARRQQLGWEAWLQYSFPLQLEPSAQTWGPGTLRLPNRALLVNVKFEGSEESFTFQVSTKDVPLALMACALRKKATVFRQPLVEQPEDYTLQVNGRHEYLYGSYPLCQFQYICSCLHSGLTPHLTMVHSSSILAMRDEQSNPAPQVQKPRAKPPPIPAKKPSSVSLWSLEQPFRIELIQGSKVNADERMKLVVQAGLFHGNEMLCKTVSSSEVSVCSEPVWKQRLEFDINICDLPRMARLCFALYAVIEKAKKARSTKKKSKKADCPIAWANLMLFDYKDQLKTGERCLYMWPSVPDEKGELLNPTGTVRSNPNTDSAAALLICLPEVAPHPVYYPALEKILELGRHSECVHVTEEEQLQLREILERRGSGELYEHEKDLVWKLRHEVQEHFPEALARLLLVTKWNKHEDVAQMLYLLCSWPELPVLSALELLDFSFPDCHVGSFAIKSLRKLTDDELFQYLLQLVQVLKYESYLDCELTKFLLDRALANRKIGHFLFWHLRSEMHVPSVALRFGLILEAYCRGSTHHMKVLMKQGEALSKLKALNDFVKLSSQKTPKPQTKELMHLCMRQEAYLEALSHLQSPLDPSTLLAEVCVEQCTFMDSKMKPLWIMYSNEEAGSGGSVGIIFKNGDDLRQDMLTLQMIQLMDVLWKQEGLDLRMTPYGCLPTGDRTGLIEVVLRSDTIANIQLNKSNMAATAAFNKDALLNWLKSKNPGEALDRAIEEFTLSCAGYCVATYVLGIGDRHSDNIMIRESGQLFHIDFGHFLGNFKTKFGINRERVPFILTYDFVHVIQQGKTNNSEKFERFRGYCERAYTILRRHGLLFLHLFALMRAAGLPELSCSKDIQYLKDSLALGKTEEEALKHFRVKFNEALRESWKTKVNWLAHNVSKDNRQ
# Sequence of p110δ+p85α nicSH2 complex (P27986 322-724, stated change not applied, chain 2 of 2): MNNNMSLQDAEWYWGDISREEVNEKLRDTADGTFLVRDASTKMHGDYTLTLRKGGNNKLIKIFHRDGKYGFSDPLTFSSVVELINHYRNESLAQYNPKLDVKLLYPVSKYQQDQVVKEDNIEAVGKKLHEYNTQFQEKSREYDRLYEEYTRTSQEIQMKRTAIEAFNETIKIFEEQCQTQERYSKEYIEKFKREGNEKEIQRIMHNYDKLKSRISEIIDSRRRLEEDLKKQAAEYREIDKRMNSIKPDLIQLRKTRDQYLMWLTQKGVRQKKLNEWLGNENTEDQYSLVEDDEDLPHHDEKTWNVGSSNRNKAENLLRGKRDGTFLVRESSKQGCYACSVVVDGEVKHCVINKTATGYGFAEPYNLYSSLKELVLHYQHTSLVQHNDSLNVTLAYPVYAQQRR
binder,measurement,value
"ESDGG[pY]MDMSKDESID[pY]VPMLDMKGDIKYADIE [PDGFR bis-phosphorylated pY peptide (residues 735–767, with pY740 and pY751)]",activation of the lipid kinase activity of p110δ+nicSH2 by 10 μM PDGFR pY,~13 fold
